# Where two headings read alike, the source gives them in different places.
# What was measured:
# [1] = target: Mouse Enolase 241-260 citrullinated peptide presented by HLA-DR4 (mouse; human)
# [2] = target: Human Enolase 241cit peptide as offered to human PBMCs (human)
# [3] = target: Human Enolase 241cit peptide as offered to human PBMCs (human); remark: listed apart in the source
# [4] = target: Human Enolase 241 wt peptide as offered to human PBMCs (human)
substance,measurement,setting,value
Splenocytes of HLA-DR4 transgenic mice immunised with a DNA construct encoding mouse enolase (cells without a defined receptor),IFNγ Elispot (/million splenocytes),[1],180
PBMCs of healthy donor 2 (cells without a defined receptor),"Thymidine proliferation assay, proliferation index (proliferation index)",[2],2.7
PBMCs of healthy donor 4 (cells without a defined receptor),"Thymidine proliferation assay, proliferation index (proliferation index)",[3],28
PBMCs of healthy donor 1 (cells without a defined receptor),"Thymidine proliferation assay, proliferation index (proliferation index)",[4],1.2
same,"Thymidine proliferation assay, proliferation index (proliferation index)",[2],28.6

# Reference: US20180207291A1
